Several values for one entry are separate records, joined by “and”; a condition that tells them apart may be missing. Identical values can stand only once.
Tests used:
[1] = molecular target: the molecule itself; assay: native MS; nano-electrospray ion mobility-MS (Synapt HDMS) of γδ′ subcomplexes; γ and δ′ mixed 3:2, then exchanged into 0.1 M NH4OAc
[2] = molecular target: T1, δ′ subunit of the γ complex (clamp loader), E. coli (E. coli, UniProt P28631 1-334); assay: as above; conditions: both partners purified
T1 construct: δ′ subunit of the E. coli clamp loader (γ complex); source: overexpressed in E. coli and purified as described [45-48]

[3] = molecular target: the molecule itself; assay: native MS; nano-electrospray ion mobility-MS (Synapt HDMS) of γ alone; 0.1 M NH4OAc pH 6.9

B1: γ subunit of the γ complex (clamp loader), E. coli (natural protein, UniProt P06710-2 1-431, looked up)
chain: MSYQVLARKWRPQTFADVVGQEHVLTALANGLSLGRIHHAYLFSGTRGVGKTSIARLLAKGLNCETGITATPCGVCDNCREIEQGRFVDLIEIDAASRTKVEDTRDLLDNVQYAPARGRFKVYLIDEVHMLSRHSFNALLKTLEEPPEHVKFLLATTDPQKLPVTILSRCLQFHLKALDVEQIRHQLEHILNEEHIAHEPRALQLLARAAEGSLRDALSLTDQAIASGDGQVSTQAVSAMLGTLDDDQALSLVEAMVEANGERVMALINEAAARGIEWEALLVEMLGLLHRIAMVQLSPAALGNDMAAIELRMRELARTIPPTDIQLYYQTLLIGRKELPYAPDRRMGVEMTLLRALAFHPRMPLPEPEVPRQSFAPVAPTAVMTPTQVPPQPQSAPQQAPTVPLPETTSQVLAARQQLQRVQGATKAKKE
notes: γ subunit of the E. coli clamp loader (γ complex); the legend speaks of the full length γ subunit against the truncated γ of the crystal structure; also called γ2; γ3; source: overexpressed in E. coli and purified as described [45-48]
**Q.** Which “stoichiometry N” value [1] does the source give for B1 here?
**A.** Its value is 2 and 3.

**Q.** What about the “stoichiometry N” value [2] of the same binder?
**A.** The value was 2 γ per δ′ and 3 γ per δ′.

**Q.** And the “stoichiometry N” value [3]?
**A.** Its value is 4.

— paper PMC2919415, “Integrating Ion Mobility Mass Spectrometry with Molecular Modelling to Determine the Architecture of Multiprotein Complexes” (PLoS ONE, 2010)
